{"source": "FireProtDB (doi:10.1021/bi012084+)", "parents": {"B1": {"name": "Glyceraldehyde-3-phosphate dehydrogenase, P00362 (parent)", "chain": "MAVKVGINGFGRIGRNVFRAALKNPDIEVVAVNDLTDANTLAHLLKYDSVHGRLDAEVSVNGNNLVVNGKEIIVKAERDPENLAWGEIGVDIVVESTGRFTKREDAAKHLEAGAKKVIISAPAKNEDITIVMGVNQDKYDPKAHHVISNASCTTNCLAPFAKVLHEQFGIVRGMMTTVHSYTNDQRILDLPHKDLRRARAAAESIIPTTTGAAKAVALVLPELKGKLNGMAMRVPTPNVSVVDLVAELEKEVTVEEVNAALKAAAEGELKGILAYSEEPLVSRDYNGSTVSSTIDALSTMVIDGKMVKVVSWYDNETGYSHRVVDLAAYIASKGL"}}, "variants_of": "B1", "settings": "Geobacillus stearothermophilus, pH 7.5, Thermal, DSC, KH2PO4/KOH 100 mM, reversible: no, structure 1GD1, whole UniProt chain shown", "note": "Where “and” joins values, the source holds several entries; their conditions need not be identical. Identical values can stand only once."}
{"variant": "Y47G R53G", "values": [{"measurement": "unfolding enthalpy (calorimetric)", "setting": "transition: 3", "result": "214 kcal/mol and 127 kcal/mol and 180 kcal/mol"}]}
{"variant": "N315T", "values": [{"measurement": "Tm", "result": 62.3, "unit": "°C"}, {"measurement": "unfolding enthalpy (calorimetric)", "result": 138, "unit": "kcal/mol"}, {"measurement": "Tm", "setting": "transition: 3", "result": 65.5, "unit": "°C"}]}
{"variant": "Y47G S49G", "values": [{"measurement": "Tm", "setting": "transition: 3", "result": "70.2 °C and 71.2 °C"}, {"measurement": "unfolding enthalpy (calorimetric)", "setting": "transition: 3", "result": 127, "unit": "kcal/mol"}]}
{"variant": "Y285V", "values": [{"measurement": "unfolding enthalpy (calorimetric)", "result": "182 kcal/mol and 397 kcal/mol and 178 kcal/mol"}]}
{"variant": "D284G", "values": [{"measurement": "unfolding enthalpy (calorimetric)", "result": "140 kcal/mol and 148 kcal/mol and 119 kcal/mol"}]}
{"variant": "T36Q T40S L44Q", "values": [{"measurement": "Tm", "result": "64.8 °C and 66.8 °C"}, {"measurement": "unfolding enthalpy (calorimetric)", "result": "215 kcal/mol and 176 kcal/mol"}, {"measurement": "unfolding enthalpy (calorimetric)", "setting": "transition: 3", "result": "215 kcal/mol and 127 kcal/mol"}]}
{"variant": "W312F", "values": [{"measurement": "unfolding enthalpy (calorimetric)", "result": "371 kcal/mol and 525 kcal/mol"}]}
